According to patent US20160138027A1 (Stanford University, published 2016):

Assays:
[1] = molecular target: T1, Rictor (human, UniProt Q6R327 1-1708); assay: FLAG co-immunoprecipitation from cross-linked HEK293T lysates, western blot (FIG. 6C)
T1 construct: Endogenous protein probed in the co-immunoprecipitate
Experimental: (§1) HEK293T cells were transfected with either MORTOR-3×FLAG or FLAG alone for 22 or 42 hours later. Cells were then starved of amino acids and serum for 4 hours and re-stimulated with amino acids for 5 minutes or left untreated. Cells were cross-linked and harvested and FLAG immunoprecipitation was used to test for interactions with endogenous proteins. […] HEK293T cells were transfected with either MORTOR-3×FLAG, MORTOR-1×FLAG (CMV), or FLAG only and treated as in FIG. 6A.
(§2) One day before transfection, 2,000,000 HEK293T cells were plated in 10 cm culture dishes. The cells were transfected with 2 μg of cDNA expression vectors using Lipofectamine 2000 (Life Technologies). Four hours after transfection, the cells were washed and incubated in DMEM with 10% FBS without antibiotics for 18 hours. When amino acid sensitivity was investigated, cells were transfected for 18 or 38 hours followed by 4 hours of amino acid starvation. The cells were then stimulated with amino acid for 7 minutes. The cells were incubated in Triton X-100 lysis buffer (1% Triton X-100, 40 mM HEPES pH 7.4, 2 mM EDTA, 200 mM NaCl, phosSTOP and protease inhibitor cocktail (Roche)) for 1 hour, followed by sonication at 4° C. For in-cell crosslinking experiments, DSP was used as previously described (Sancak, Y., et al. (2008) “The Rag GTPases Bind Raptor and Mediate Amino Acid Signaling to MTORC1,” Science, 320:1496-1501) prior to cell lysis. The lysates were centrifuged at 20,000×g for 30 minutes. For immunoprecipitation, primary antibodies were cross-linked to Protein G beads (Life technologies) using DMP (Thermo scientific). For anti-FLAG-immunoprecipitation, the FLAG-M2 affinity gel (Life technologies) was used. The cleared lysates were incubated with the beads at 4° C. for 2 hours or overnight. The beads were washed five times with ice-cold lysis buffer. Immunoprecipitated proteins were denatured in the SDS sample buffer and separated by SDS-PAGE. The intensity of bands were quantified using ImageJ (NIH).

[2] = molecular target: T2, ATP6V1A (human, UniProt P38606 1-617); assay: as above
T2 construct: Endogenous protein probed in the co-immunoprecipitate
Experimental: as §1, §2

[3] = molecular target: T3, p62 (human, UniProt Q13501 2-440); assay: as above
T3 construct: Endogenous protein probed with anti-p62 from BD Transduction Laboratories
Experimental: as §1, §2

[4] = molecular target: T4, LRS (human, UniProt Q9P2J5 1-1176); assay: FLAG co-immunoprecipitation from HEK293T lysates, western blot
T4 construct: Endogenous protein probed in the co-immunoprecipitate; also called Leucyl tRNA synthetase

Measured: binding result

T4 sequence (Q9P2J5 whole entry): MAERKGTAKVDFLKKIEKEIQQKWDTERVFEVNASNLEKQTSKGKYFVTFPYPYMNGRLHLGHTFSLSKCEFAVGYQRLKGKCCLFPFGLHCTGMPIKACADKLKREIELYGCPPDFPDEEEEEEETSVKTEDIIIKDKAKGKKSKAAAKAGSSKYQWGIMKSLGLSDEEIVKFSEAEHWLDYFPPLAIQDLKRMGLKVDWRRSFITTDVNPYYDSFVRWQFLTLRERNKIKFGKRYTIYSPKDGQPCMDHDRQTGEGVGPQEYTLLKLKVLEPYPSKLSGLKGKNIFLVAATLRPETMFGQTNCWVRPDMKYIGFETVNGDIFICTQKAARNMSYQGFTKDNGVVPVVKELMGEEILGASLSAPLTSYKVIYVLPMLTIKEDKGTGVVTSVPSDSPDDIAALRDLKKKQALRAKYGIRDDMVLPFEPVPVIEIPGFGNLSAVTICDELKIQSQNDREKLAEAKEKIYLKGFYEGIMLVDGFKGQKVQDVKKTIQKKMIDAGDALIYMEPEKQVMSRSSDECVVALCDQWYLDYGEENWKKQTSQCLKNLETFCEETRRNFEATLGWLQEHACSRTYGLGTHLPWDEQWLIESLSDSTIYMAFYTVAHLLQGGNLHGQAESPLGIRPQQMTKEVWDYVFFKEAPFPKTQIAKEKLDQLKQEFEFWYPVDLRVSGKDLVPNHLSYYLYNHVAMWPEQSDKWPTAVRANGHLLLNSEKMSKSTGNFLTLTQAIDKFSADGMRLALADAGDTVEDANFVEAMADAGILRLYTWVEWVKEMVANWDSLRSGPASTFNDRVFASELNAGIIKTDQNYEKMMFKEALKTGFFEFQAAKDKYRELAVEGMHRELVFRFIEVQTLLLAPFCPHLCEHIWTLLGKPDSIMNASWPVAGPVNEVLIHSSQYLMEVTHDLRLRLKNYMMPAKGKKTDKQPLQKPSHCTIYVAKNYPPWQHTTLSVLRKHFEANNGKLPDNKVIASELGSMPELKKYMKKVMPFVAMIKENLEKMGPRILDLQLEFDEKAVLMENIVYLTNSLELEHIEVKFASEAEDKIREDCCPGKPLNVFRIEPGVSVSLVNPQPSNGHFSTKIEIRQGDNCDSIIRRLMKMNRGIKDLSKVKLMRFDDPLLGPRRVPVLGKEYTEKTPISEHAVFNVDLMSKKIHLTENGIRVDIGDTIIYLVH
T1 sequence (Q6R327 whole entry): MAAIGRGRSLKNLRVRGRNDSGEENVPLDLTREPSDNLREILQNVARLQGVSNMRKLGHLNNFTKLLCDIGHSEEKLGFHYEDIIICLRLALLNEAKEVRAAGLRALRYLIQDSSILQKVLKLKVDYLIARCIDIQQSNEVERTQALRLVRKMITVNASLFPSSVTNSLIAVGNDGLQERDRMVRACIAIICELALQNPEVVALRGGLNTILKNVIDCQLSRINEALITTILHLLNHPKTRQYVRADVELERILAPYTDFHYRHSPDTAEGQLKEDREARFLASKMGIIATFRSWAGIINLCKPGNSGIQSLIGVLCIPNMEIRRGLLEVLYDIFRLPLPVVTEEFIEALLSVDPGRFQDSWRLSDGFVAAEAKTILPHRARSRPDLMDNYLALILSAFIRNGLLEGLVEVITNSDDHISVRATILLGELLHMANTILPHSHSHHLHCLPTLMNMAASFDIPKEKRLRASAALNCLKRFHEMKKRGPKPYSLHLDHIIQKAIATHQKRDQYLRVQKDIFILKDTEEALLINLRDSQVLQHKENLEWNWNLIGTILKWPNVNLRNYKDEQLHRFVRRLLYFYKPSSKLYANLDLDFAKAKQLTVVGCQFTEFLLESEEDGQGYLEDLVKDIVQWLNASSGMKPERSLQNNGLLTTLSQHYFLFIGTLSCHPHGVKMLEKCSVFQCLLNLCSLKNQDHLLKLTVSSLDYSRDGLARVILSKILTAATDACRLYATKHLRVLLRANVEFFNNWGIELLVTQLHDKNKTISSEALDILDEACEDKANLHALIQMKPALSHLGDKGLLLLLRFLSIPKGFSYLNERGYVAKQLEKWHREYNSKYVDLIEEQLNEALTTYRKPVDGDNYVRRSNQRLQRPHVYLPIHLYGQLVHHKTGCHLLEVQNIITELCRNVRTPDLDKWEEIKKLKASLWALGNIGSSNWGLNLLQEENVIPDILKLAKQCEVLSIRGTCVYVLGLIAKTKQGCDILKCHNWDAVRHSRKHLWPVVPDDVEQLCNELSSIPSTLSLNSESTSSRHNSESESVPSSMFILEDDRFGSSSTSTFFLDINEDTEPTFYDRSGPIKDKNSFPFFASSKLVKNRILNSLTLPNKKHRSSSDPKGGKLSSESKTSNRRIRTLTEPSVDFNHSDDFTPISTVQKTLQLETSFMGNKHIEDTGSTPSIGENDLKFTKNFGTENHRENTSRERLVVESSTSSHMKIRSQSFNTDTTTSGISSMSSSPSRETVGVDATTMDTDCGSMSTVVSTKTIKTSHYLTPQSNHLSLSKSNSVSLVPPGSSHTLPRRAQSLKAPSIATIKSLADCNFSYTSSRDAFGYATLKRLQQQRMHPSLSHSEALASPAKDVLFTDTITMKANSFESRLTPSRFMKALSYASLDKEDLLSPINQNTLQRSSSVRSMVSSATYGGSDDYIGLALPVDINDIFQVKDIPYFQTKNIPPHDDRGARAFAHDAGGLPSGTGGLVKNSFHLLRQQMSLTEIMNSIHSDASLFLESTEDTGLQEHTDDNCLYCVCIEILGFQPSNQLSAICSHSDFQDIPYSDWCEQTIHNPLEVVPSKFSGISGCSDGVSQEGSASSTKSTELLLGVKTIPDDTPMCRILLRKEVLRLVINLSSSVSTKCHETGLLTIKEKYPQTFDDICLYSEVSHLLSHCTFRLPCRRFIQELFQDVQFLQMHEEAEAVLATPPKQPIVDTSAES
T2 sequence (P38606 whole entry): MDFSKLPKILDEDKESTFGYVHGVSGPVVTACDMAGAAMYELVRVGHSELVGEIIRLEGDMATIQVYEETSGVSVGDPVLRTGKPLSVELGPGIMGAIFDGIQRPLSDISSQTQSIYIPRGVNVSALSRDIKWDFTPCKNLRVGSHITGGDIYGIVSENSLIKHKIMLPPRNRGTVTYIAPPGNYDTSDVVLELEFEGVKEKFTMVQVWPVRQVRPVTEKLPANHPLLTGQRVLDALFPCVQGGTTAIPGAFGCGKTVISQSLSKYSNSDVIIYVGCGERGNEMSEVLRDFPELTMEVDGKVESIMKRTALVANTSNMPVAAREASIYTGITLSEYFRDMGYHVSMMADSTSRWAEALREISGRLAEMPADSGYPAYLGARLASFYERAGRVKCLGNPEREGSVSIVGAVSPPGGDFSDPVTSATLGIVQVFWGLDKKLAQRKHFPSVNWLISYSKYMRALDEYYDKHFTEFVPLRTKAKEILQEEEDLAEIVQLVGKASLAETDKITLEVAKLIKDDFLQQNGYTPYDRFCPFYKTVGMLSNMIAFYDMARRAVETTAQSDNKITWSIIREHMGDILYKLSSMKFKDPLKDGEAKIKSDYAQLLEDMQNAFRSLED

B1: MORTOR-3×FLAG (receptor)
chain: MRPERPRPRGSAPGPMETPPWDPARNDSLPPTLTPAVPPYVKLGLTVVYTVFYALLFVFIYVQLWLVLRYRHKRLSYQSVFLFLCLFWASLRTVLFSFYFKDFVAANSLSPFVFWLLYCFPVCLQFFTLTLMNLYFTQVIFKAKSKYSPELLKYRLPLYLASLFISLVFLLVNLTCAVLVKTGNWERKVIVSVRVAINDTLFVLCAVSLSICLYKISKMSLANIYLESKGSSVCQVTAIGVTVILLYTSRACYNLFILSFSQNKSVHSFDYDWYNVSDQADLKNQLGDAGYVLFGVVLFVWELLPTTLVVYFFRVRNPTKDLTNPGMVPSHGFSPRSYFFDNPRRYDSDDDLAWNIAPQGLQGGFAPDYYDWGQQTNSFLAQAGTLQDSTLDPDKPSLG
notes: Expressed from pBMN-GPR137b-3×FLAG in HEK293T or HeLa cells and immunoprecipitated from lysates on FLAG-M2 gel; also called GPR137b-3×FLAG; MORTOR-FLAG; not shown: 3×FLAG tag
no binding: all assays above
